From US9555076B2, “Neuregulin based methods and compositions for treating cardiovascular diseases” (Zensun (Shanghai) Science & Technology, Co., Ltd., priority 2002, dated 2017)
Several values for one entry are separate records, joined by “and”; a condition that tells them apart may be missing. Equal values may be shown once.

Columns and labels:
Assay type in all cases: in vivo, SD rat
[1] = system: heart failure in rat caused by ligation of coronary artery; test: Echocardiography heart function, heart failure by ligation of coronary artery
[2] = system: heart failure in rat caused by ligation of coronary artery; test: as above; remark: listed apart in the source
Method: Route of drug administration: in both testing drug group and model group the drug was injected into the tail vein once per day for consecutive 5 days. Echocardiography was performed at the 6th day prior to drug administration, then continuously injected for 5 days. Volume of each drug injection was 0.4 ml/100 g body weight.
After anesthesia with intra-abdominal injection of 100 mg/kg ketamine, the rat was fixed on rat plate in supine position, disinfection of the neck region with bromo-geramine was carried out after depilating. Midline incision was made, trachea was found after separating the anterior cervical muscle, 18 G arterial indwelling trochar was inserted into the trachea at the level of 3-5 tracheal cartilage, took out the stylet, push the plastic cannula 1-2 cm further into the trachea, fixed it for later connection with ventilator for small animal (tidal volume was about […], frequency was 80/min). […] Then closed the chest wall, block the opening of the ventilator to inflate the lungs, forcefully pressed the chest to drive out the air, then sutured the chest muscle and skin. Monitoring the respiration, after spontaneous respiration recovered, withdrawn the ventilator, took the animal back to its cage for breeding. In the pseudo-operation group, only the pericardium was tore open, but without the coronary artery ligation.
Echocardiograph was performed for the operated rat at about 6 days postoperatively, those animals with about 50% reduction of EF value were randomly divided into groups, the EF value of each group was all about 50%, then drug administration began.
Those animals with EF value of about 50% were randomly divided into model group (negative group) and 3-dosage level testing drug groups with 12-13 animals in each group. Route of drug administration in testing drug group and model group was injection into the tail vein, once every day for consecutive 5 days. After echocardiography at the 6th day, another 5 days of consecutive drug administration was carried out. Drug volume of each injection was 0.4 ml/100 g body weight.
Echocardiography was performed under anesthesia with ketamine after the legation and prior to drug administration and at the 6th day, 11th day of drug administration, the major index included: • EF: heart ejection fraction, reflecting ejection function of ventricle; • FS: ventricular short axis shortening rate, reflecting contraction function of ventricle; • LVDd: diastolic maximal inner diameter of left ventricle (cm); • LVDs: systolic minimal inner diameter of left ventricle (cm). 6.3.3.2 Determination of the Content of Plasma Renin-angiotensin-aldosterone

[3] = system: toxic myocarditis caused by Adriamycin in rat; test: Serum troponin T (cTnT) level, Adriamycin rat model
[4] = system: heart failure in rat caused by ligation of coronary artery; test: Capillary counting in myocardial fibrotic area (HE, image analysis)
Source text: After fixed with 10% formaldehyde, myocardium of the rat was longitudinally cut with equal distance into 3 slices, conventionally embedded with paraffin, section made, HE stained, image analysis for area of fibrotic region of the heart, counted the number of capillary in the fibrotic lesion (counting unit: piece/mm^2); Nagar-Oslen stained, studied the size of ischemic hypoxic region in the myocardium.

[5] = 5 μg/kg group, prior to drug administration, (1)
[6] = 5 μg/kg iv 10 qd, 10 days after the drug administration, (II)
[7] = 5 μg/kg iv qd × 5, 5 days after the drug administration, (1)
[8] = 5 μg/kg iv qd × 5, 5 days after the drug administration, (II)
[9] = 5 μg/kg iv qd × 10, 10 days after the drug administration, (1)
[10] = 5 μg/kg, Table 4, titled 10 days after the drug administration, (II)
[11] = 10 μg/kg group, prior to drug administration, (1)
[12] = 10 μg/kg iv 10 qd, 10 days after the drug administration, (II)
[13] = 10 μg/kg iv qd × 5, 5 days after the drug administration, (1)
[14] = 10 μg/kg iv qd × 5, 5 days after the drug administration, (II)
[15] = 10 μg/kg iv qd × 10, 10 days after the drug administration, (1)
[16] = 10 μg/kg, Table 4, titled 10 days after the drug administration, (II)
[17] = 20 μg/kg group, prior to drug administration, (1)
[18] = 20 μg/kg iv 10 qd, 10 days after the drug administration, (II)
[19] = 20 μg/kg iv qd × 5, 5 days after the drug administration, (1)
[20] = 20 μg/kg iv qd × 5, 5 days after the drug administration, (II)
[21] = 20 μg/kg iv qd × 10, 10 days after the drug administration, (1)
[22] = 20 μg/kg, Table 4, titled 10 days after the drug administration, (II)

B1: rhNRG-1 β: Recombinant human neuregulin fragment of 61 amino acid (SEQ ID NO:4), 3 disulfide bonds, expressed in E. coli (protein, listed as Homo sapiens)
chain: SHLVKCAEKEKTFCVNGGECFMVKDLSNPSRYLCKCPNEFTGDRCQNYVMASFYKAEELYQ
modifications: disulfide (positions not given here)
[1]; 5 μg/kg, after ligation prior to drug administration, long-term monitoring
  EF value: 53.1 ± 12.8%
[1]; 20 μg/kg
  time the changes of ejection fraction maintain after the drug administration: about 35 days
[1]; 20 μg/kg, 5-day after drug administration and 35-day after drug withdrawal
  EF value: 73.0 ± 20.3 %
[2]; [5]
  EF: 49.3%
  FS: 22.0%
  LVDd: 0.761 cm
  LVDs: 0.596 cm
[2]; [6]
  EF: 57.90%
  FS: 29.26%
  LVDd: 0.70 cm
  LVDs: 0.53 cm
[2]; [7]
  EF: 62.9±8.4% and 62.90%
  FS: 30.3±6.1% and 30.32%
  LVDd: 0.73 cm
  LVDs: 0.54 cm
[2]; [8]
  EF: 56.76%
  FS: 28.35%
  LVDd: 0.74 cm
  LVDs: 0.58 cm
[2]; [9]
  EF: 59.2±12.4% and 59.2%
  FS: 28.4±8.6% and 28.4%
  LVDd: 0.72 cm
  LVDs: 0.55 cm
[2]; 5 μg/kg, 5-day after drug administration and 35-day after drug withdrawal
  EF value: 69.9 ± 28.6%
[2]; 5 μg/kg, 5-day after drug administration, long-term monitoring
  EF value: 75.8 ± 15.3%
[2]; [10]
  EF: 50.81%
  FS: 22.83%
  LVDd: 0.66 cm
  LVDs: 0.51 cm
[2]; [11]
  EF: 49.5%
  FS: 22.1%
  LVDd: 0.709 cm
  LVDs: 0.555 cm
[2]; [12]
  EF: 66.54%
  FS: 34.28%
  LVDd: 0.68 cm
  LVDs: 0.49 cm
[2]; [13]
  EF: 64.4±12.9% and 64.3±12.8% and 64.35%
  FS: 32.0±9.5% and 32.01%
  LVDd: 0.71 cm
  LVDs: 0.51 cm
[2]; [14]
  EF: 56.51%
  FS: 26.53%
  LVDd: 0.72 cm
  LVDs: 0.54 cm
[2]; [15]
  EF: 61.4±15.0% and 61.4%
  FS: 30.3±10.4% and 30.3%
  LVDd: 0.7 cm
  LVDs: 0.51 cm
[2]; 10 μg/kg, 5-day after drug administration and 35-day after drug withdrawal
  EF value: 63.8 ± 23.8%
[2]; 10 μg/kg, 5-day after drug administration, long-term monitoring
  EF value: 77.3 ± 11.6%
[2]; [16]
  EF: 51.67%
  FS: 23.27%
  LVDd: 0.64 cm
  LVDs: 0.49 cm
[2]; 10 μg/kg, after ligation prior to drug administration, long-term monitoring
  EF value: 52.2 ± 12.8%
[2]; [17]
  EF: 49.3%
  FS: 21.7%
  LVDd: 0.730 cm
  LVDs: 0.575 cm
[2]; [18]
  EF: 70.22%
  FS: 36.49%
  LVDd: 0.65 cm
  LVDs: 0.42 cm
[2]; [19]
  EF: 71.1±12.0% and 71.07%
  FS: 36.9±9.7% and 36.88%
  LVDd: 0.70 cm
  LVDs: 0.46 cm
[2]; [20]
  EF: 65.47%
  FS: 34.23%
  LVDd: 0.68 cm
  LVDs: 0.46 cm
[2]; [21]
  EF: 75.7±10.8% and 75.7%
  FS: 41.3±11.0% and 41.3%
  LVDd: 0.6 cm
  LVDs: 0.5 cm
[2]; 20 μg/kg, 5-day after drug administration, long-term monitoring
  EF value: 79.2 ± 4.7 %
[2]; [22]
  EF: 52.29%
  FS: 23.89%
  LVDd: 0.74 cm
  LVDs: 0.56 cm
[2]; 20 μg/kg, after ligation prior to drug administration, long-term monitoring
  EF value: 52.4 ± 13.8%
[3]; 10 μg/kg iv qd × 10 d, (II)
  cTnI: 8.342 ± 13.537 ng/mL
[3]; 20 μg/kg iv qd × 10 d, (II)
  cTnI: 1.677 ± 0.589 ng/mL
[3]; 40 μg/kg iv qd × 10, (II)
  cTnI: 0.874 ± 0.108 ng/mL
[4]; 5 μg/kg iv qd x 10
  Capillary counting (I): 9.35 ± 4.2 piece/mm^2
  Capillary counting (II): 15.0 ± 6.9 piece/mm^2
[4]; 10 μg/kg iv qd x 10
  Capillary counting (I): 8.99 ± 3.3 piece/mm^2
  Capillary counting (II): 19.6 ± 8.5 piece/mm^2
[4]; 20 μg/kg iv qd x 10
  Capillary counting (I): 10.12 ± 3.0 piece/mm^2
  Capillary counting (II): 24.6 ± 9.5 piece/mm^2
